# Results: publication PMC3536784 (PLoS ONE, 2013)
# B1: biphenyl dioxygenase (BPDO_(B356)) α-subunit from Pandoraea pnomenusa B-356 (enzyme)
# chain: MSSTMKDTQEAPVRWSRNWTPDAIRALVDQDNGKLDARIYADQDLYQLELERVFGRSWLMLGHETHIPKIGDYLTTYMGEDPVIMVRQKDQSIKVFLNQCRHRGMRIVRSDGGNAKAFTCTYHGWAYDIAGNLVNVPFEKEAFCDKKEGDCGFDKADWGPLQARVETYKGLVFANWDPEAPDLKTYLSDAMPYMDVMLDRTEAGTEAIGGIQKWVIPCNWKFAAEQFCSDMYHAGTMSHLSGVLAGLPPEMDLTQIQLSKNGNQFRSAWGGHGAGWFINDSSILLSVVGPKITQYWTQGPAAEKAARRVPQLPILDMFGQHMTVFPTCSFLPGINTIRTWHPRGPNEVEVWAFVLVDADAPEDIKEEFRLQNIRTFNAGGVFEQDDGENWVEIQRVMRGHKAKSTSLCAKMGLNVPNKNNPAYPGKTAYVYAEEAARGMYHHWSRMMSEPSWDTLKP
# notes: Co-produced and co-purified with the β-subunit as the (αβ)3 oxygenase; three copies in the hexamer; Holds a Rieske Fe2S2 cluster and a mononuclear Fe(II); also called α of BphAE; source: heterologously produced and purified anaerobically as described previously [17]
# B2: biphenyl dioxygenase (BPDO_(B356)) β-subunit from Pandoraea pnomenusa B-356 (enzyme, UniProt Q46373 1-186, looked up)
# chain: MISTPLSKEFEWPAKPVSLELQHQVEQFYYREAQLLDHHAFQAWFALLAEDIHYWMPIRTVRTAREQGLEYVPAGANAHFDDTHATMYGRIRQKTSDLNWAEDPPSRTRHLVSNVIVREMDTPGTLEVASAFLLYRSRLERQVDVFAGERRDVLRIADNPLGFQIAKRTIILDQSTVLANNLSVFF
# notes: the final models include the complete β-subunit; Co-produced and co-purified with the α-subunit as the (αβ)3 oxygenase; three copies in the hexamer; also called β of BphAE; BPDO β; source: heterologously produced and purified anaerobically as described previously [17]
# Tests used:
# [1] = biological target: the molecule itself; experiment: crystal structure; crystals grown anaerobically by sitting drop vapor diffusion (citrate pH 5.8 or MES pH 6.0), space group R3, one αβ protomer in the asymmetric unit; three αβ protomers about the crystallographic three-fold axis form the (αβ)3 hexamer; without and with biphenyl
# [2] = biological target: B1; experiment: as above; details: both partners purified
Binder,binding result [1],binding result [2]
B1,binds,
B2,binds,binds
